Measurements reported in publication PMC2475632.

T1: Dpo4 (DNA polymerase IV) (Sulfolobus solfataricus, UniProt Q97W02 1-352)
T1 sequence: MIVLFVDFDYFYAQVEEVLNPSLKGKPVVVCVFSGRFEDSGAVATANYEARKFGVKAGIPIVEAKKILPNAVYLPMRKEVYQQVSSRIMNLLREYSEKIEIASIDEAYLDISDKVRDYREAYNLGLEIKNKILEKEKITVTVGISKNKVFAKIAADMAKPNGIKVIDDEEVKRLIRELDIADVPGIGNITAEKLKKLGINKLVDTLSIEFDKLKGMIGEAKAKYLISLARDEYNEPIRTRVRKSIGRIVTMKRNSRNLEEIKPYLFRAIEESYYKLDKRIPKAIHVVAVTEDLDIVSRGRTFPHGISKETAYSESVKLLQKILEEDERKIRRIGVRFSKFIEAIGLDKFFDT

B1: 21-mer/44DDP (dsDNA)
DNA 1: GTCCCTGTTCGGGCGCCAGGA
DNA 2: GATCACGAGACTAGCCTCTGGTCTCCTGGCGCCCGAACAGGGAC
modifications: cisplatin-d(GpG) intrastrand cross-link at template G20-G21 (5' to 3' numbering; GG inferred from primer 23/24 sites)
B2: 24-mer/44CTL (dsDNA)
DNA 1: GTCCCTGTTCGGGCGCCAGGAGAC
DNA 2: B1 DNA 2
B3: 22-mer/44DDP (dsDNA)
DNA 1: GTCCCTGTTCGGGCGCCAGGAG
DNA 2: B1 DNA 2
modifications: cisplatin-d(GpG) intrastrand cross-link at template G20-G21
B4: 27-mer/44CTL (dsDNA)
DNA 1: GTCCCTGTTCGGGCGCCAGGAGACCAG
DNA 2: B1 DNA 2
B5: 22-mer/44CTL (dsDNA)
DNA 1: GTCCCTGTTCGGGCGCCAGGAG
DNA 2: B1 DNA 2
B6: 24-mer/44DDP (dsDNA)
DNA 1: GTCCCTGTTCGGGCGCCAGGAGAC
DNA 2: B1 DNA 2
modifications: cisplatin-d(GpG) intrastrand cross-link at template G20-G21
B7: 21-mer/44CTL (dsDNA)
DNA 1: GTCCCTGTTCGGGCGCCAGGA
DNA 2: B1 DNA 2
B8: 23-mer/44DDP (dsDNA)
DNA 1: GTCCCTGTTCGGGCGCCAGGAGA
DNA 2: B1 DNA 2
modifications: cisplatin-d(GpG) intrastrand cross-link at template G20-G21
B9: 25-mer/44DDP (dsDNA)
DNA 1: GTCCCTGTTCGGGCGCCAGGAGACC
DNA 2: B1 DNA 2
modifications: cisplatin-d(GpG) intrastrand cross-link at template G20-G21
B10: 26-mer/44DDP (dsDNA)
DNA 1: GTCCCTGTTCGGGCGCCAGGAGACCA
DNA 2: B1 DNA 2
modifications: cisplatin-d(GpG) intrastrand cross-link at template G20-G21
B11: 25-mer/44CTL (dsDNA)
DNA 1: GTCCCTGTTCGGGCGCCAGGAGACC
DNA 2: B1 DNA 2
B12: 23-mer/44CTL (dsDNA)
DNA 1: GTCCCTGTTCGGGCGCCAGGAGA
DNA 2: B1 DNA 2
B13: 27-mer/44DDP (dsDNA)
DNA 1: GTCCCTGTTCGGGCGCCAGGAGACCAG
DNA 2: B1 DNA 2
modifications: cisplatin-d(GpG) intrastrand cross-link at template G20-G21
B14: 26-mer/44CTL (dsDNA)
DNA 1: GTCCCTGTTCGGGCGCCAGGAGACCA
DNA 2: B1 DNA 2

Each binder was assayed against T1, Dpo4 (DNA polymerase IV) (assay: EMSA).
For B1, the Kd was 8 ± 1 nM. In the case of B2, the Kd is reported as 8 ± 1 nM. B3 was tested, and the Kd was 21 ± 4 nM. In the case of B4, the Kd is reported as 13 ± 4 nM. B5 showed a Kd of 16 ± 3 nM. In the case of B6, the Kd is reported as 26 ± 3 nM. Work on B7 yielded a Kd of 18 ± 3 nM. B8 was tested, and the Kd was 56 ± 9 nM. Work on B9 yielded a Kd of 17 ± 4 nM. Binder B10 has a Kd of 12 ± 2 nM. B11 gave a Kd of 5 ± 1 nM. B12 was tested, and the Kd was 17 ± 2 nM. With B13 the Kd was 17 ± 3 nM. For B14, the Kd was 11 ± 2 nM.
